Paper PMC7709199, “Homogeneously N-glycosylated proteins derived from the GlycoDelete HEK293 cell line enable diffraction-quality crystallogenesis” (Acta Crystallographica. Section D, Structural Biology, 2020)

How the values were obtained:
X-ray diffraction = conditions: glycan changed form; control: HEK293T-expressed protein
[1] = achievable concentration for crystal screens; conditions: glycan lost; control: undigested HEK293S MGAT1−/− material
[2] = achievable concentration of CSF-1 complex; conditions: glycan changed form; control: wild-type (HEK293T) material
[3] = X-ray diffraction of CSF-1 complex crystals; conditions: glycan changed form; control: HEK293T-expressed receptor
initial expression tests = conditions: glycan lost; control: other CSF-1RD1–D3 constructs
[4] = target: the molecule itself; test: crystal structure; DSCAM_(Ig7–Ig9) from HEK293 GlycoDelete cells; space group C2, one molecule in the asymmetric unit, oligomer by crystallographic symmetry; 0.2 M calcium acetate, 10% PEG 8000, 0.1 M HEPES pH 7.5, 3% glycerol; 1.85 Å
[5] = target: the molecule itself; test: SEC; size-exclusion chromatography of IMAC-purified murine IL-12B from GD cells

**Q.** Which “other: crystal diffraction quality, other: diffraction limit” value (X-ray diffraction) does the source give for “Down syndrome cell-adhesion molecule (DSCAMIg7–Ig9): GlycoDelete expression” here?
**A.** Its value is “increases, 1.85 vs ∼8”.

**Q.** For “colony-stimulating factor 1 receptor (CSF-1RD1–D3): EndoH digestion”, which “other: solubility” value [1] is on record?
**A.** The value was “decreases”.

**Q.** For “colony-stimulating factor 1 receptor (CSF-1RD1–D3): GlycoDelete expression”, which “other: solubility” value [2] is on record?
**A.** Its value is “no change”.

**Q.** Which “other: crystal diffraction quality, other: diffraction limit” value [3] does the source give for “colony-stimulating factor 1 receptor (CSF-1RD1–D3): HEK293S MGAT1−/− expression” here?
**A.** The value was “increases, 4.5 vs did not diffract”.

**Q.** Which expression_or_secretion (initial expression tests) does the source give for “colony-stimulating factor 1 receptor (CSF-1RD1–D3): N73Q” here?
**A.** The expression_or_secretion was “abolishes”.

**Q.** With “colony-stimulating factor 1 receptor (CSF-1RD1–D3): N153Q” as the molecule, how does the expression_or_secretion (initial expression tests) read?
**A.** The expression_or_secretion was “no change”.

**Q.** With “colony-stimulating factor 1 receptor (CSF-1RD1–D3): N240Q” as the molecule, how does the expression_or_secretion (initial expression tests) read?
**A.** Its expression_or_secretion is “no change”.

**Q.** Which expression_or_secretion (initial expression tests) does the source give for “colony-stimulating factor 1 receptor (CSF-1RD1–D3): N275Q” here?
**A.** Its expression_or_secretion is “no change”.

B1: human Down syndrome cell-adhesion molecule fragment DSCAM_(Ig7–Ig9) (domain or fragment)
chain: TVPPFIQPFEFPRFSIGQRVFIPCVVVSGDLPITITWQKDGRPIPGSLGVTIDNIDFTSSLRISNLSLMHNGNYTCIARNEAAAVEHQSQLIVRVPPKFVVQPRDQDGIYGKAVILNCSAEGYPVPTIVWKFSKGAGVPQFQPIALNGRIQVLSNGSLLIKHVVEEDSGYYLCKVSNDVGADVSKSMYLTVKIPAMITSYPNTTLATQGQKKEMSCTAHGEKPIIVRWEKEDRIINPEMARYLVSTKEVGEEVISTLQILPTVREDSGFFSCHAINSYGEDRGIIQLTVQEE
modifications: GlycoDelete N-glycan stubs at Asn666, Asn710, Asn748 and Asn795 (full Neu5AcGalGlcNAc at Asn795)
notes: one-residue cloning scar (Thr594) at the N-terminus; Down syndrome cell-adhesion molecule (DSCAM), human, UniProt O60469, residues 595–884 (Val595–Glu884), immunoglobulin domains Ig7, Ig8 and Ig9; one-residue cloning scar (Glu885) before the C-terminal 6×His tag; Expressed from pXLG behind a 34-residue signal peptide of pregnancy-specific glycoprotein 1 (UniProt P11464); The signal peptide is not …
**Q.** Does B1 bind [4]?
**A.** Result: binds

B2: murine IL-12B (natural protein, UniProt P43432 23-335, looked up)
chain: MWELEKDVYVVEVDWTPDAPGETVNLTCDTPEEDDITWTSDQRHGVIGSGKTLTITVKEFLDAGQYTCHKGGETLSHSHLLLHKKENGIWSTEILKNFKNKTFLKCEAPNYSGRFTCSWLVQRNMDLKFNIKSSSSSPDSRAVTCGMASLSAEKVTLDQRDYEKYSVSCQEDVTCPTAEETLPIELALEARQQNKYENYSTSFFIRDIIKPDPPKNLQMKPLKNSQVEVSWEYPDSWSTPHSYFSLKFFVRIQRKKEKMKETEEGCNQKGAFLVEKTSTEVQCKGGNVCVQAQDRYYNSSCSKWACVPCRVRS
modifications: immature N-linked glycan on Asn220 (modelled as Man4GlcNAc2)
notes: signal peptide in the construct; The dimeric SEC fractions (disulfide-linked homodimer through Cys197) were pooled, polished on Mono Q and crystallised; also called IL-12p40 (monomer); IL-12p80 (homodimer); source: HEK293 GlycoDelete cells, transfected, secreted; purified (IMAC, SEC, Mono Q anion exchange)
**Q.** For B2, which “stoichiometry N” value [5] is on record?
**A.** The value was 2.
